Data taken from the nanobody polyreactivity screen of Harvey et al. (2022).

Experiment: yeast display, Sf9 membrane polyspecificity reagent, FACS + sequencing; frameworks hold sequencing errors
Method in brief: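 A nanobody's polyreactivity label depends on the gate it was sorted from. Yeast display cells were stained with 10% biotinylated, detergent-solubilized Sf9 membrane reagent for 1 hour at 4 °C, enriched on streptavidin microbeads and sorted by FACS. The low and high (top ~1%) gates were set on anti-HA fluorescence for expression and streptavidin fluorescence for reagent binding.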

Sequence | polyreactivity (PSR sort gate)
QVQLVESGGGLVQAGGSLRLSCAASGSTFLGNAMGWYRQAPGKERELVAGITSGGTTNYADSVKGRFTISRDNAKNTVYLQMNSLKPEDTAVYYCNADVWIGQRFDPGYDFDYWGQGTQVTVSS | low polyreactivity
QVQLVESGGGLVQAGGSLRLSCAASGSTFLGYAMGWSRQAPGKERELVAAINLSTSGTYYADSVKGRFTISRDNAKNTVYLQMNSLKPEDTAVYYCAAAYSNINYYYQYYYWGQGTQVTVSS | low polyreactivity
QVQLVESGGGLVQAGGSLRLSCAASGSTFLHYAMGWYRQAPGKERELVAAISFSGVRTYYADSVKGRFTISRDNAKNTVYLQMNSLKPEDTAVYYCAADGHHADYDYWGQGTQVTVSS | low polyreactivity
QVQLVESGGGLVQAGGSLRLSCAASGSTFLHYAMGWYRQAPGKERELVATITSGDSTSYADSVKGRFTISRDNAKNTVYLQMNSLKPEDTAVYYCTANRVHRSASPYDYWGQGTQVTVSS | low polyreactivity
QVQLVESGGGLVQAGGSLRLSCAASGSTFLINAMGWYRQAPGKERELVAAISRDGSTNYADSVKGRFTISRDNAKNTVYLQMNSLKPEDTAVYYCAAVPGISVGRQPGYDYDYWGQGTQVTVSS | low polyreactivity
QVQLVESGGGLVQAGGSLRLSCAASGSTFLLNAMGWYRPAPGKERELVAAITWTGGSTYYADSVKGRFTISRDNAKNTVYLQMNILKPEDTAVYYCAAEHYEYWRELVTSEYDYWGKGTQVTVSS | low polyreactivity
QVQLVESGGGLVQAGGSLRLSCAASGSTFLNYAMGWYRQAPGKERELVAAISFSGGRTYYADSVKGRFTISRDNAKNTVFLQMNSLKPEDTAVYYCAARGSYAYYRGQGTQVTVSS | high polyreactivity
QVQLVESGGGLVQAGGSLRLSCAASGSTFLNYAMGWYRQAPGKERELVASISYSAGSTYYADSVKGRFTISRDNAKNTVYLQMNSLKPEDTAVYYCAARLARAGYWRRNYYYWGQGTQVTVSS | high polyreactivity
QVQLVESGGGLVQAGGSLRLSCAASGSTFLPNAMGWYRQAPGKERELVARISYSGGNTYYADSVKGRFTISRDNAKNTVYLQMNSLKPEDTAVYYCAAVGWYHDYYWGQGTQVTVSS | high polyreactivity
QVQLVESGGGLVQAGGSLRLSCAASGSTFLPNAMGWYRQPPGKERELVAAITNSGGNTYADSVKGRFTISRDNAKNTVYLQMNSLKPEDTAVYYCNARFSPTGWARGNDYWGQGTQVTVSS | low polyreactivity
QVQLVESGGGLVQAGGSLRLSCAASGSTFLPYALGWYRQAPGKERELVAAIDWNGGRTYYADSVKGRFTISRDNAKNTVYLQMNSLKPEDTAVYYCAKLGRAAQGNYYWGQGTQVTVSS | high polyreactivity
QVQLVESGGGLVQAGGSLRLSCAASGSTFLPYVMGWYRQATGKERELVAAISRSGGRTYYADSVKGRFTISRDKAKNTVYLQMNRLKPEDTAVYYCNAVQRFYADYQPFAYWGQGTQLTVSS | high polyreactivity
QVQLVESGGGLVQAGGSLRLSCAASGSTFLRNAMGWYREAPGKERELVAAISTRGGSTYYADSVKGRFTISRDNAKNTVNLQMNSLKPEDTADYYCAAVATRRYDYWGQGTQVTVSS | high polyreactivity
QVQLVESGGGLVQAGGSLRLSCAASGSTFLRNAMGWYRQAPGKERELVATISRTGGTTYYADSVKGRFTISRDNAKTTVYLQMNSLKPEDTAVYYCAAYSKYGQHYDYWGQGTQVTVSS | high polyreactivity
QVQLVESGGGLVQAGGSLRLSCAASGSTFLRNAMGWYRQAPGKQGSWVATISYDGDSTYYADSVTGRFTISRDNAKNTVYLQMNSLKPDDPAVYYCAASYSQTFWDKDDYWGQGTQVTVSS | low polyreactivity
QVQLVESGGGLVQAGGSLRLSCAASGSTFLRNVMGWYRQAPGKESELVAAISSRGGSTHYADSVKGRFTISRDNAKNSVYLQMNILKPEDTAVYYCNAERSAAQYVRAAYDYWGQGTQVTVSS | low polyreactivity
QVQLVESGGGLVQAGGSLRLSCAASGSTFLRYAMGWYRQAPGKERELVAAINLSGDRTYYADSVKGRFTISRDNAKNTDYVQMNSLKPEDTAVYYCAARWWGPSYDAYDYWVQGTQVTVSS | low polyreactivity
QVQLVESGGGLVQAGGSLRLSCAASGSTFLRYAMGWYRQAPGKERELVAAITASGGSTYYADSVKGRFTISRDNAKNTVYLEMNSLKPEDTAVYYCAADGRYIGKNSHDLWIYGYYYWGQGTQVTVSS | low polyreactivity
QVQLVESGGGLVQAGGSLRLSCAASGSTFLSYAKGWYRQATGKEREVVAAISGRGGSTYYADSVKGRFTISRDNAKNTVYLKMNSLKPEDTAVYYCARVYRPSADTYNYWGQGTQVTVSS | high polyreactivity
QVQLVESGGGLVQAGGSLRLSCAASGSTFLSYAMGWYRQAPGKERELVATINRGGSTYYADSVKGRFTISRDNAKNTVYLQMNSLKPEDTAVYYCAKANKRGRYNYWGQGTQVTVSS | high polyreactivity
QVQLVESGGGLVQAGGSLRLSCAASGSTFLTNAMGWYRQAPGKERELVAAIRWRGGDTRYADSVKGRFTISRDNAKNTVYLQMNSLKPEDTAVYYCAAQYRKTQYQKKYDYWGQGTQVTVSS | high polyreactivity

Sequence | polyreactivity (PSR sort gate)
QVQLVESGGGLVQAGGSLRLSCAASGSTFLTNTMGWYRQAPGKERELVAIISRSSGTTYYSDSVKGRFTISRDNAKNTVYLQMNSLKPEDTAVYYCAKRYRRASPYSKNVYWGQGTQVTVSS | high polyreactivity
QVQLVESGGGLVQAGGSLRLSCAASGSTFLTYDMGWYRQAPGKERELVAAISGGGSTNYADSVKGRFTISRDNAKNTFYLQMNSLKPVDTAVYYCAAKASGNFYYYWGQGTQVTVSS | high polyreactivity
QVQLVESGGGLVQAGGSLRLSCAASGSTFLVYAMGWYRQAPGKERELVAVITRGVRTFYADSVKGRFTFSRDNAKNTVYLQMNSLKPEDTAVYYCAKERYNANYDTSLYDYWGQGTQVTVSS | low polyreactivity
QVQLVESGGGLVQAGGSLRLSCAASGSTFLYYSMGWYRQAPGKETELVAAIDSGGSTYYADSVKWRFTISRDNAKNTVYLQMNSLKPEDTAVYYCNPDFADHWPPNGPGAHDYWGQGTQVTVSS | low polyreactivity
QVQLVESGGGLVQAGGSLRLSCAASGSTFNAYAMGWNRQAPGKERELVAVISSSGGRTYYADSVKGRFTISRDNAKNTVYLQMNSLKPEDTAVYYCNADVKYRYNHWGQGTQVTVSS | high polyreactivity
QVQLVESGGGLVQAGGSLRLSCAASGSTFNDYAMGWYRQAPGKERELVAGITWRGTSTYYADSVKGRFTISRDNAKNTVYLQMNSLKPEDTAVYYCAADVYYLLWLWMDYWGQGTQVTVSS | low polyreactivity
QVQLVESGGGLVQAGGSLRLSCAASGSTFNDYAMGWYRQAPGNERELVAGITWRGTSTYYADSVKGRFTISRDNAKNTVYLQMNSLKPEDTAVYYCNADHVYGGYQYDFDYWGQGTQVTVSS | low polyreactivity
QVQLVESGGGLVQAGGSLRLSCAASGSTFNDYVMGWYRKAPGKERELVAAISRSGGSTYYADSVKGRFTISRDNAKNTVYIQMNSLKPEDTAFYYCNSDVGYWWGYYGYDYWGQGTQVTVSS | high polyreactivity
QVQLVESGGGLVQAGGSLRLSCAASGSTFNGNVMGWYRQAPGKDRELVAGISKSGGTTYYADSVKGRFTISRDNAKNTVYLQMNSLKPEDTAVYYCDARGRVRYYPQYDYWGQGTQVTVSS | high polyreactivity
QVQLVESGGGLVQAGGSLRLSCAASGSTFNGYAMGWYRQAPGKERELVAAISKRGGSTYYADSVKGRFTISRDNAKNTVYLQMNSLKPEDTAVYYCAARNPTKYLMDYWGKGTQVTVSS | high polyreactivity
QVQLVESGGGLVQAGGSLRLSCAASGSTFNIYVMGSYREPPGKERELVAAITTSGRTYYADSVKGRFTISRDNAKNTVYLQMNSLKPEDNAVYYCAAATGTYGRGGYYWGQGTQVTVSS | high polyreactivity
QVQLVESGGGLVQAGGSLRLSCAASGSTFNLYAMGWYRPAPGKERELVAAISRGGSTYYADSVKGRFTISRDNAKNTVYLQMNSLKPEDTAVYYCAARSWYDRYPYYSWGQGTQVTVSS | high polyreactivity
QVQLVESGGGLVQAGGSLRLSCAASGSTFNLYAMGWYRQAHGKERELVADITWSGGSTYYADSVKWRFTISRDNAKKTFYLQMNSLKPEDTAVYYCAAYGLSWGGYDYWGQATQVTVSS | low polyreactivity
QVQLVESGGGLVQAGGSLRLSCAASGSTFNNYGMGWYTQAPGTERELVAAITKSGGITYYADSVKGRFTISRDNAKNTVYLQMNRLKREDTAVYYCAAAYTIYWFSYRVLYYYWGQGTQVTVSS | low polyreactivity
QVQLVESGGGLVQAGGSLRLSCAASGSTFNPYTMGWPRQAPGKERELVATITRIGGSTYYADSVKGRFTISRDNAKNTVDLQMNSLKPEDNAVYYCAADHYRSVRWRSDYTYRVNYWGQGTQVTVSS | high polyreactivity
QVQLVESGGGLVQAGGSLRLSCAASGSTFNRNAMGWYRQAPGKERELVAAISWRGDSTSYADSVKGRFTISRDNAKNTVYLQMNSLKPEDTAVYYCATAHDYAFYRYWYVPSEYNYWGQGSQVTVSS | low polyreactivity
QVQLVESGGGLVQAGGSLRLSCAASGSTFNRNGMGWYRQAPGKERELVAAISRSTTSTYYADSVKGRFTISRDNAKNTVYLQMNSLKPEDTAVYYCATPHRYRVDYWGQGTQVTVSS | high polyreactivity
QVQLVESGGGLVQAGGSLRLSCAASGSTFNRYAMGWYRQAPGKERELVAAISWNGGSTYYADSVKGRFTSSRDNAKNTVYLQMNSLKPEDTAVYYCATLVRKYDGFNYWGQGTQVTVSS | high polyreactivity
QVQLVESGGGLVQAGGSLRLSCAASGSTFNRYAMGWYRQAPGKERELVASISWGGGRTYYADSVKGRFTISRDNAKNTVYLQMNSLKPEDTAVYYCATDRYYRHYEVDYWGQGTQVTVSS | low polyreactivity
QVQLVESGGGLVQAGGSLRLSCAASGSTFNSNAMGWYRQAPGKERELVASITWTDVSTYYADSVKGRFTISRDNAKNTVYLQMNSLKPEDTAVYYCAAVTGLSSNDGYDYWGQGTQVTVSS | low polyreactivity
